Ends that are not written are not given here. * marks the point of attachment. Biotin = O=C1N[C@H]2[C@H](CS[C@H]2CCCCC(=O)*)N1
Key:
Assay in all cases: peptide or protein array; E. coli proteome chip: purified His-tagged proteins printed in duplicate on Fullmoon slides, blocked with 1% BSA; 10 nM N-terminal biotinylated LfcinB with 1% BSA, room temperature, 1 h; detected with DyLight 649-labeled streptavidin, ratio to DyLight 549-labeled anti-His antibody; ProCAT normalisation, local cut-off; triplicate chips
Conditions in all cases: both partners purified
[1] = target: T1, ribonucleoside-diphosphate reductase 2, β subunit (E. coli K-12, UniProt P37146 1-319)
T1 construct: NrdF, ribonucleoside-diphosphate reductase 2, β subunit, E. coli K-12; no measurement of the oligomer here; also called NrdF
T1 sequence (P37146 whole entry): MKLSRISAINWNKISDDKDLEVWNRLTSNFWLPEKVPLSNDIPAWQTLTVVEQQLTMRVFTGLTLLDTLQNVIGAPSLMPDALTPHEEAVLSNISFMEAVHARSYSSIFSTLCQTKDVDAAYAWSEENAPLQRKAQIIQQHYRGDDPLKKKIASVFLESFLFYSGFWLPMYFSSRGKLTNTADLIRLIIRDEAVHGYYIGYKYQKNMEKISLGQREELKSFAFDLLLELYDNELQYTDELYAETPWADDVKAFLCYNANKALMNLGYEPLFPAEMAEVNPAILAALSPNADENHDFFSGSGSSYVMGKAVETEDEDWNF

[2] = target: RpsB (E. coli K-12, UniProt P0A7V0 1-241)
[3] = target: T2, YdaW (E. coli K-12, UniProt P76066 1-186)
T2 construct: YdaW, E. coli K-12
T2 sequence (looked up): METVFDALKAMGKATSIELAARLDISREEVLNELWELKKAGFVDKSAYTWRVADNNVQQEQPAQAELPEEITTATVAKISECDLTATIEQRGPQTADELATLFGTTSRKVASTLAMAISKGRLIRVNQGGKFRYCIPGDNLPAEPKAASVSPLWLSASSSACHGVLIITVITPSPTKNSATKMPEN

[4] = target: T3, YqiA (E. coli K-12, UniProt P0A8Z7 1-193)
T3 construct: YqiA, E. coli K-12
T3 sequence (P0A8Z7 whole entry): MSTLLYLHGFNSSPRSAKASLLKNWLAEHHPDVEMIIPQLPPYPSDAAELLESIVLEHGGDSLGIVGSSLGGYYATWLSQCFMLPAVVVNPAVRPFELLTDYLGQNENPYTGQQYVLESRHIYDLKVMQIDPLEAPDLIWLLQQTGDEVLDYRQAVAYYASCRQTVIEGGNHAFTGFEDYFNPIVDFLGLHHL

[5] = target: T4, YggF (E. coli K-12, UniProt P21437 1-321)
T4 construct: YggF, E. coli K-12
T4 sequence (looked up): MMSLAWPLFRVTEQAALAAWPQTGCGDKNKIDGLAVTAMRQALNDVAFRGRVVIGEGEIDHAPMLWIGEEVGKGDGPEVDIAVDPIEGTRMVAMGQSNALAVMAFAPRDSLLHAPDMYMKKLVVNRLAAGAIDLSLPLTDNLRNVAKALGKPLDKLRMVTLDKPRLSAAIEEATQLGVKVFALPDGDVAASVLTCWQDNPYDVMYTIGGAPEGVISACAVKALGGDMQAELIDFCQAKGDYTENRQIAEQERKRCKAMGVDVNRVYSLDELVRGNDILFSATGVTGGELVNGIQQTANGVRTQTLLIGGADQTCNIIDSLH

[6] = target: T5, YjbM (E. coli K-12, UniProt P32694 1-235)
T5 construct: YjbM, E. coli K-12
T5 sequence (looked up): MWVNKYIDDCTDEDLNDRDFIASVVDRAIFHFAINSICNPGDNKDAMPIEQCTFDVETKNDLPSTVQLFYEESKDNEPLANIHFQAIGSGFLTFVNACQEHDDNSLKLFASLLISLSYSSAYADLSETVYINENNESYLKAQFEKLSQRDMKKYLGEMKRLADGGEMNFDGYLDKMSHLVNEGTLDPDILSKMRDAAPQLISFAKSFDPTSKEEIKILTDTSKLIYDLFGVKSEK

[7] = target: T6, YjiL (E. coli K-12, UniProt P39383 1-255)
T6 construct: YjiL, E. coli K-12
T6 sequence (looked up): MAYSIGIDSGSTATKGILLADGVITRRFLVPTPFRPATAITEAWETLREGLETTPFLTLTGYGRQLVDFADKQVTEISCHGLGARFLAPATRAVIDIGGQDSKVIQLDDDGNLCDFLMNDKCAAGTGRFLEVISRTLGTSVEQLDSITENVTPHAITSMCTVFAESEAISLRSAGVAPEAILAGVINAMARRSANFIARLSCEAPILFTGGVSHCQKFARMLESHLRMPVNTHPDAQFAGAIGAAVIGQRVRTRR

[8] = target: T7, SoxR (E. coli K-12, UniProt P0ACS2 1-154)
T7 construct: SoxR, E. coli K-12
T7 sequence (looked up): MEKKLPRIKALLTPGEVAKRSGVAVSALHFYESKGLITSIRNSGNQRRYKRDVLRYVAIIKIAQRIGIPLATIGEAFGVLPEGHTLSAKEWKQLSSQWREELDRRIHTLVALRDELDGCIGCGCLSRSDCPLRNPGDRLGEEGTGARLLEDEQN

Measured: binding result

B1: N-terminal biotinylated Lactoferricin B (peptide, UniProt P24627 36-60, looked up)
peptide: Biotin-FKCRRWQWRMKKLGAPSITCVRRAF
modifications: ends and bridges not checked
notes: lactoferricin B (LfcinB), cationic antimicrobial peptide of 25 amino acids; also called biotinylated LfcinB; biotin-labeled LfcinB; source: bought: Kelowna Inc
binds: all assays above

Source: PMC3229523, “Identification of Lactoferricin B Intracellular Targets Using an Escherichia coli Proteome Chip” (PLoS ONE, 2011)
